Experimental findings from patent US20090136418A1 are described below.

The target of assay [1] is unknown target molecule expressed on the plasma membranes of human HCC cells. Put plainly: in vivo competition, 100 ug SP94 co-injected with 2x10^9 pfu PC94 (competitor of PC94), Mahlavu xenograft; phage recovered from tumor.
Assay [2] shares this target.
Assay [3] shares this target. Put plainly: flow cytometry on HCC cell lines Changliver and J5 (range over the two lines). The arrangement: concentration or dose not given beside the values. On the technique in general: Flow cytometry measures light scatter and fluorescence of single cells or particles in a stream.
For assay [4] the target is unchanged. Put plainly: flow cytometry on HCC cell line HA22T. Also on record: concentration or dose not given beside the values.
Assay [5] shares this target. Put plainly: flow cytometry on HCC cell lines Mahlavu, 59T, Hep3B, HepG2, NTUBL and SKHepl (range over the six lines). Also on record: concentration or dose not given beside the values.

SFSIIHTPILPL [SP94 synthetic peptide (…)]: the percent inhibition of PC94 binding to tumor tissue in assay [1] stood at 88%.
In the case of SFSIIHTPILPL (peptide, not shown: large carriers) [phage clone 94 (PC94)], the fold binding activity over control phage in assay [2] turned out to be 8 fold. In addition, the percent reactive cells (FACS) in assay [3] is 25.7 to 31.9%; in assay [4], 19.1%; in assay [5], 47 to 81.2%.
